Laboratory results reported in US12624112 (MABWELL SHANGHAI BIOSCIENCE, dated 2026).
Residue numbers refer to the chain shown, from its start.

B1: 5888-379-H1L0 (antibody, human IgG4 S228P, kappa, V domains shown)
VH: QVQLVQSGAEVKKPGASVKVSCKASGYTFINYGMNWVRQAPGQRLEWMGWINTYIGEPTYGDNFKGRVTITRDTSASTAYMELSSLRSEDTAVYYCAREGEGFAYWGQGTLVTVSS
VL: DIQMTQSPSSLSASVGDRVTITCKSSQSLLYSGNQNNYLAWYQQKPGKVPKLLIYGASTRESGVPSRFSGSGSGTDFTLTISSLQPEDVATYYCQNDHSYPYTFGGGTKVEIKR
notes: Humanized antibody
B2: 5888-379-H2L1 (antibody, human IgG4 S228P, kappa, V domains shown)
VH: B1 VH with E101D, G102A
VL: B1 VL with V89L
notes: Humanized antibody
B3: 5886-156-H1L0 (antibody, human IgG4 S228P, kappa, V domains shown)
VH: QVQLQESGPGLVKPSQTLSLTCTVSGYSITSDYAWNWIRQPPGKGLEWIGYIDYSGSTTYNPSLKSRVTISRDTSKNQFSLKLSSVTAADTAVYYCASTVIDSMDYWGQGTLVTVSS
VL: DIVLTQSPASLAVSPGQRATITCRASKSVSTSGHSYMHWYQQKPGQPPKLLIYLASNLESGVPARFSGSGSGTDFTLTINPVEANDTANYYCQHSREFPFTFGQGTKVEIKR
notes: Humanized antibody expressed in CHO-K1, purified by protein A
B4: 5887-41-H1L0 (antibody, human IgG4 S228P, kappa, V domains shown)
VH: B3 VH with N36D, D53R, S57D, T59Y, S98T, V100M, I101M, S103T
VL: B3 VL with H34N, F100L, V108L
notes: Humanized antibody

Assays:
[1] = target: T1, ST2 on the effector cells (KU812, KU812/NF-κB-1#, HUVEC, HMC-1) (human, UniProt Q01638 19-556); test: cell-based or functional assay
T1 sequence (looked up): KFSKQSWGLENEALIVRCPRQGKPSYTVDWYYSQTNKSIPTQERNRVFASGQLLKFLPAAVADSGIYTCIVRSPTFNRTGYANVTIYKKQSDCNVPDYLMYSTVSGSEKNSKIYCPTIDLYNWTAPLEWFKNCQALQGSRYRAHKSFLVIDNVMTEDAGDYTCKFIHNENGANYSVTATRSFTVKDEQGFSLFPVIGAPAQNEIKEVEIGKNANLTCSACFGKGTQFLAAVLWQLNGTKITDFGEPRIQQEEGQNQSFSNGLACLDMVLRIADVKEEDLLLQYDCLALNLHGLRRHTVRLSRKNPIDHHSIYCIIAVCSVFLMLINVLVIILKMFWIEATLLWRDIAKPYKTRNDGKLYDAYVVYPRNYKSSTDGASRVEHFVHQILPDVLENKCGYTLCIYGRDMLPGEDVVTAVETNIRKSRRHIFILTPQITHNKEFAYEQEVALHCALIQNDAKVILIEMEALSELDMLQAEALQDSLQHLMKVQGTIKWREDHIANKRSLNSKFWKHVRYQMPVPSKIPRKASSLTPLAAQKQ

[2] = target: T1, ST2 on the effector cells (KU812, …); test: cell-based or functional assay; remark: listed apart in the source
[3] = target: T1, ST2 on the effector cells (KU812, …); test: cell-based or functional assay; remark: listed apart in the source
[4] = target: T1, ST2 on the effector cells (KU812, …); test: cell-based or functional assay; remark: listed apart in the source
[5] = target: T1, ST2 on the effector cells (KU812, …); test: cell-based or functional assay; remark: listed apart in the source
Human ST2-fc (human) = Human ST2-fc (human) (UniProt Q01638); test: competition ELISA, coated ST2-fc, competitor IL33-his
Human ST2-his [6] = target: T2, Human ST2-his (human, UniProt Q01638-2 19-328, limits assumed); test: SPR Biacore X100, ratio of kd at pH 5.5 to kd at pH 7.4
T2 construct: Expressed in CHO-K1; The printed range starts at Met1; also called human ST2 fused with a 6-histidine tag at the C-terminus
T2 sequence: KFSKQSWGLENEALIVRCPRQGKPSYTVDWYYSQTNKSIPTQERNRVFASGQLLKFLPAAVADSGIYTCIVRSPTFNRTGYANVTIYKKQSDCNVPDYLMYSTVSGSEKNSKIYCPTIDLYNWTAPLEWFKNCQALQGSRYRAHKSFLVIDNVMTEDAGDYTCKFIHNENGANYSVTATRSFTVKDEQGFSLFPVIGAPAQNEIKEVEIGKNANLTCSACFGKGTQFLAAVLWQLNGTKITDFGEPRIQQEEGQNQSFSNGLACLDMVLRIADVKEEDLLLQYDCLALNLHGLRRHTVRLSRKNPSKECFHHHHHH
Protocol: (§1) The experiment on the interaction between the anti-human ST2 antibodies and human ST2-his was performed using Biacore X100.
(§2) Each anti-human ST2 antibody was diluted to 2 µg/mL and captured on the surface of a protein A chip for a capture time of 60 s. Following the antibody capture, a solution of human ST2-his (2-fold gradient dilution from a starting concentration of 20 nM, to obtain 6 concentrations in total) was injected. Association was monitored for 180 s and dissociation was monitored for 700 s, and the sensor surface was regenerated by injecting a solution of glycine at pH 2.0. Kinetic data were analyzed using a simple 1:1 binding model.

Human ST2-his [7] = target: T2, Human ST2-his; test: SPR Biacore X100, antibody captured on protein A chip, human ST2-his injected, pH 7.4
Protocol: as §1, §2

Human ST2-his [8] = target: T2, Human ST2-his; test: SPR Biacore X100, antibody captured on protein A chip, human ST2-his injected, dissociation at pH 5.5
Protocol: as §1, §2

[9] = target: T1, ST2 on the effector cells (KU812, …); test: cell-based or functional assay; remark: listed apart in the source

| Binder | IC50, inhibition of KU812-IL5 production promoted by IL-33 (human IL33-his) [1] [µg/mL] | Maximum inhibition rate, KU812-IL5 production by IL-33 [1] [%] | Relative activity compared with CNTO7160, KU812-IL5 production by IL-33 [1] [%] | IC50, inhibition of KU812-IL5 production promoted by oxidized IL33 [2] [µg/mL] | Maximum inhibition rate, KU812-IL5 production by oxidized IL33 [2] [%] | Relative activity, KU812-IL5 production by oxidized IL33 [2] [%] | IC50, inhibition of KU812-IL5 production promoted by reduced IL33 [3] [µg/mL] | Maximum inhibition rate, KU812-IL5 production by reduced IL33 [3] [%] | Relative activity, KU812-IL5 production by reduced IL33 [3] [%] | IC50, inhibition of HUVEC-IL6 production promoted by IL33 [4] [µg/mL] | Maximum inhibition rate, HUVEC-IL6 production by IL33 [4] [%] | Relative activity, HUVEC-IL6 production by IL33 [4] [%] | IC50, inhibition of HMC-1 IL8 production promoted by IL33 [5] [µg/mL] | Maximum inhibition rate, HMC-1 IL8 production by IL33 [5] [%] | Relative activity, HMC-1 IL8 production by IL33 [5] [%] | IC50 (Human ST2-fc (human)) [µg/mL] | Maximum inhibition rate (Human ST2-fc (human)) [%] | Relative activity compared with CNTO7160 (Human ST2-fc (human)) [%] | kd ratio of pH 5.5/pH 7.4 (Human ST2-his [6]) | Kd (Human ST2-his [7]) [nM] | further results |
| --- | --- | --- | --- | --- | --- | --- | --- | --- | --- | --- | --- | --- | --- | --- | --- | --- | --- | --- | --- | --- | --- |
| B1 | 0.0874 | 99.4 | 131 | 0.0161 | 101 | 137 | 2.87 | 96.7 | 51.1 | 16.1 | 83 | 16.9 | 0.334 | 85.6 | 30.1 | 0.465 | 89.1 | 188 | 7.26 | 0.452 | koff (Human ST2-his [7]): 0.000351 s⁻¹; kon (Human ST2-his [7]): 777000 M⁻¹ s⁻¹; Kd (Human ST2-his [8]): 1.43 nM; koff (Human ST2-his [8]): 0.00255 s⁻¹; kon (Human ST2-his [8]): 1.79e+06 M⁻¹ s⁻¹ |
| B2 | 0.0839 | 98 | 121 | 0.0228 | 101 | 96.8 | 2.87 | 96.7 | 51.1 | 26.1 | 71.6 | 10.4 | 0.23 | 90.2 | 43.8 | 0.427 | 84.8 | 206 | 11.9 | 0.495 | koff (Human ST2-his [7]): 0.000485 s⁻¹; kon (Human ST2-his [7]): 979000 M⁻¹ s⁻¹; Kd (Human ST2-his [8]): 1.67 nM; koff (Human ST2-his [8]): 0.00575 s⁻¹; kon (Human ST2-his [8]): 3.46e+06 M⁻¹ s⁻¹ |
| B3 | 0.0354 | 98.1 | 181 | 0.0285 | 101 | 77.5 | 0.752 | 93.4 | 195 | 4.05 | 87.9 | 67.3 | 0.177 | 81 | 56.9 | 1.22 | 89.2 | 103 | 1.03 | 0.275 | IC50, inhibition of activation of KU812-NF-κB reporter gene by IL33 [9]: 478 ng/mL; Maximum inhibition rate, KU812-NF-κB reporter gene [9]: 92.5%; Relative activity compared with CNTO7160, KU812-NF-κB reporter gene [9]: 41.9%; koff (Human ST2-his [7]): 0.000272 s⁻¹; kon (Human ST2-his [7]): 990000 M⁻¹ s⁻¹; Kd (Human ST2-his [8]): 0.276 nM; koff (Human ST2-his [8]): 0.000279 s⁻¹; kon (Human ST2-his [8]): 1.01e+06 M⁻¹ s⁻¹ |
| B4 | 0.0699 | 97.3 | 91.7 | 0.0337 | 101 | 65.4 | 0.706 | 78.6 | 208 | 1.31 | 93.2 | 208 | 0.123 | 77.8 | 81.6 | 0.58 | 92.8 | 216 | 1 | 0.214 | IC50, inhibition of activation of KU812-NF-κB reporter gene by IL33 [9]: 55.4 ng/mL; Maximum inhibition rate, KU812-NF-κB reporter gene [9]: 89.2%; Relative activity compared with CNTO7160, KU812-NF-κB reporter gene [9]: 362%; koff (Human ST2-his [7]): 9.98e-05 s⁻¹; kon (Human ST2-his [7]): 467000 M⁻¹ s⁻¹; Kd (Human ST2-his [8]): 0.161 nM; koff (Human ST2-his [8]): 0.0001 s⁻¹; kon (Human ST2-his [8]): 622000 M⁻¹ s⁻¹ |
